What was measured:
AUC [1] = molecular target: the molecule itself; assay: AUC
AUC [2] = molecular target: the molecule itself; assay: AUC; remark: listed apart in the source

B1: GluR6 amino terminal domain (GluR6 R1R2 ATD, residues 1-389) expressed in wild type HEK293 cells (domain or fragment)
chain: TTHVLRFGGIFEYVESGPMGAEELAFRFAVNTINRNRTLLPNTTLTYDTQKINLYDSFEASKKACDQLSLGVAAIFGPSHSSSANAVQSICNALGVPHIQTRWKHQVSDNKDSFYVSLYPDFSSLSRAILDLVQFFKWKTVTVVYDDSTGLIRLQELIKAPSRYNLRLKIRQLPADTKDAKPLLKEMKRGKEFHVIFDCSHEMAAGILKQALAMGMMTEYYHYIFTTLDLFALDVEPYRYSGVNMTGFRILNTENTQVSSIIEKWSMERLQAPPKPDSGLLDGFMTTDAALMYDAVHVVSVAVQQFPQMTVSSLQCNRHKPWRFGTRFMSLIKEAHWEGLTGRITFNKTNGLRTDFDLDVISLKEEGLEKIGTWDPASGLNMTESQKGK
modifications: N-linked glycans at five sites, non uniform (complex) glycosylation
stoichiometry N (AUC [1]): 2
Kd (AUC [2]): 11.3 µM
